Here are results for one substance from patent publication US20180186877A1, “METHOD FOR SUPPRESSING BLOOD COAGULATION REACTION FOR WHICH LOX-1 IS RESPONSIBLE” (NATIONAL CEREBRAL AND CARDIOVASCULAR CENTER, priority 2013, published 2018).

For this assay, the target named is LOX-1 (immobilised on the ELISA plate in Examples 3 to 6; recombinant LOX-1 protein immobilised in the test tube in Example 8) (UniProt P78380). Description: ELISA, LOX-1 immobilised at 5 ug/mL, recombinant A2 domain 0-10 ug/mL, anti-V5 detection. For orientation: In an ELISA, binding on a coated surface is turned into a signal by an enzyme label.

Chain of Recombinant A2 domain of the H chain of FV (NM000130.4, aa 317-656, V5-6xHis; Igk secretion signal) (P12259 345-684 limits assumed, form in doubt): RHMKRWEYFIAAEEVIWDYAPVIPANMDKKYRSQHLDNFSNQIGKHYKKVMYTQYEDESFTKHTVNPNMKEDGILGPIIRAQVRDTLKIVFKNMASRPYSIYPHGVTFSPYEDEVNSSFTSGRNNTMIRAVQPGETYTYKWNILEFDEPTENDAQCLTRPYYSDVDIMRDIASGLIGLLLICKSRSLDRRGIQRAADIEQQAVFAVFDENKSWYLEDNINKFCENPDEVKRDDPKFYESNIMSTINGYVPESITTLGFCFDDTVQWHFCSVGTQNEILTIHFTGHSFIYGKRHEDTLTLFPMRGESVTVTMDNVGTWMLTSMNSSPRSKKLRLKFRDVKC

A word on the EC50 (read off the curve): it is the concentration that produces a half-maximal response. On to “Recombinant A2 domain of the H chain of FV (NM000130.4, aa 317-656, V5-6xHis; Igk secretion signal) (from UniProt P12259 345-684)”, for which the EC50 (read off the curve) stood at 1 µg/mL.
